Assay results reported in the supplement of paper PMC9170038.

Test system: K4 kissing-loop RNA reporter
Assay: apparent KD of K4 kissing-loop reporter; higher = weaker reporter binding
Conditions: Eterna round: R107; input ligand: theophylline 20 uM
Method: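 RNA-MaP round R107: designed RNA switches with theophylline, tryptophan, arginine or FMN aptamers are transcribed on-chip within common flanks. They are titrated with a labelled K4 kissing-loop RNA reporter in RNA-MaP buffer (100 mM Tris pH 7.5, 80 mM KCl, 4 mM MgCl2), without ligand or with the indicated ligand. Median apparent KD per design.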
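Further: bound reporter read as fluorescence of individual clusters on recovered sequencing chips by microscopy, with normalized cluster intensities fitted with a binding model.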

Row | Sequence | apparent KD of K4 kissing-loop reporter [nM]
1 | AUAAACUUGCAGUGAUGUUGCAAGUAAGACUAGGAUAUCAGGAAGCUGAGAAGGAGUCAUCUCCUUCAAACAUCACUAUGAAGGA [whbob_SS_FMNA__2th177] | 328
2 | UUUGGUAGCGGUGUUGAUUAGGGAGCGGAAGGAGCGCCGAGGAGGGCAGGUAGGUCGCCGGAAUGUAGUGAUGUUGCAUAGAGGU [ExArgA.Ab] | 574
3 | CCUAUCUCAUACGAUACCAGUGAAUUUAUAUUUAUAAGCAGUGAUGUUGCAUUCCAAGUACACCCUUGGCAGCGUAUGGGAUAGG [Ex Theophylline B K4 21] | 168
4 | AGACUACUGAUAGGAUAUAACAUACUACUCGUAUACCAAAGGUAUACGAGAACCCUUCUAGUGAUGUUAGAAGGGUCGGUAGUCA [Omei KL FMN B Exc B v7] | 70.1
5 | CAAUGAGUUUAAGAUGAUAUCAUCACAGAAGGAGCGAGUGAUAACUCAGGUAGGUCGCUGAAUUUGUCGAGUGAUGUUCGAUAGA [whbob_SS_Arginine_A_sa120] | 166
6 | UUUUAAUAAGAGGAUACCAGUACAAAUAAAGUACAUUAAUAGUAGAGUGAUGUUCUAAAGUACCCUUGGCAGCUUAGAGUAAGUU [ExTheophylB.B] | 260
7 | GUACCUUGGAAACAAGGACAGAUAACCGAAGGAGCGCGUGAAAACGCAGGUAGGUCGCGGAAGCAGUGAUGUUGCAAAAGAGAGC [Same State Arginine A GF 17] | 228
8 | GUUAAGUCGCGAAGGAGCGCGAACUAACAACGCAGUGAUGUUGCGUUGUACGUAGUAUAAUCGCAGGUAGGUCGCGCGACAGGCC [Arg B SS t16] | 81
9 | AGUGAUGUUGAGUGAUGUUAGUGAAGUGAUCGAGGACCGGUACGGCCGCCACUCGAGUGAUGAGUGAGUGAUGUUUGUUUAGUGA [hhbmullin] | 120
10 | GGAUUCGGCACGGCCGCCACUUCCGGUGGCUGGUGUCAUGGUGCGCGUGAGUGAUGUUUAUGUGGGAGGACCGGGUGUUGAGUCC [whbob_Ex_Tryp_B_w44] | 1000
11 | AAGAAGAAUGGAAGGAGCGAGCAGAUAUAACCAGUGAUGUUGGAAAGCCUUAUUGCUUAAGCUCAGGUAGGUCGCCAAGAAGAGA [whbob_Ex_Arginine_B_2t152] | 192

Same assay, conditions: Eterna round: R107; input ligand: tryptophan 2.4 mM

Row | Sequence | apparent KD of K4 kissing-loop reporter [nM]
12 | GGGCCAUGGUUUUUGCUAGUGAUGUUAGACCGAGGACCGGUACGGCCGCCACUCGGCAAGUCUUUCGUUAGAUCUCUGGGAAGUC [theeternabot_exclusion_KL_Trp_A_45] | 578
13 | ACAUCGGUUGAGAGUGAUGUUCCUUGUGUUCGAGGACCGGUACGGCCGCCACUCGGGUAGAAAAUAACAGAUGUGUUUGAUUUUU [BDazzled - #16 SS Tryptophan A] | 244
14 | GCCGUAGAUUGAAGGAGCGGCUUCAUCAAAUCUCUAGCCCACACCAGUGAUGUUGGUGUUAGCCAGGUAGGUCGCAAUCUACGGC | 411
15 | ACGAUCUUCGGCCUAUGAGUGAUGUUUAUGCGAGGACCGGUACGGCCGCCACUCGGGCGGUUAUUCACUACGCCUCUUCCGUCGA [theeternabot_exclusion_KL_Trp_A_37] | 649
16 | GCCGUAGAUUGAAGGAGCGACAUAAACGAUGUUCUGGUAGUGAUGUUACCUUAGCAGGCAUGUCAGGUAGGUCGCAAUCUACGGC | 176
17 | GUAGGAUGAGGAGGAGGAUGAAUUACUGAAGGAGCGCAUAUUUAUGCAGGUAGGUCGCGGUAAAGAAGUAUAGUGAUGUUAUAUA [SSArgA.I] | 246
18 | CCGCUGUAGUGCAUUAAGUGAUGUUUAGUGCAGGAUAUCUGGAAACAGAGAAGGGCACGUACUCGACGAGGCCAAUACAGCGGUU | 358
19 | AAGGUAUCUAGAUACAUUACUGAACUAGAUACCAGCAUCGAAAGAUGCCCUUGGCAGCUAGCAGUGAUGUUGCUAGCAAUAAGAA [Design3] | 119
20 | CCUAUCUCAUACGAUACCAGUGAAUUUAUGUUUAUUAGCAGUGAUGUUGCAUUCCAAGUACACCCUUGGCAGCGUAUGGGAUAGG [Ex Theophylline B K4 23] | 151
21 | ACAGUAGUGAUGUCUUUGAUAUUACUACUGCGAGGACCGGUACGGCCGCCACUCGCCCAUUUUUGGGUUGAGAGUGAUGUUCUCA [Skye_SS_TA2] | 588
22 | CAUUCUAAAUGCAGUGAUGUUGCAACUGAUACCAGUAUCGAAAGAUACCCUUGGCAGCGGAAAACCGCUACGUUUUUUUAGAAUG [Ex Theophylline A K4 23] | 243
23 | GGUAGCAUGGCGGCCGCCACUGCGAAUGACGGCCACGUGAAAGUUGCCGCAGAGUGAUGUUCUGGCAGGACCGGGCCAUGCUACC | 354
24 | GCGCGGGAGUGAUGUUCCAAGUGGUGUUAGCGAGGACCGGUACGGCCGCCACUCGUUACGGGCGGCCCGUAGGAUACACUGGCGC [Same State - Tryptophan A (Freestyle 18)] | 392
25 | GCUAUGGUAGGAAGGAGCGCUUAAUUAUUAAUAAGAGUGAUGUUCGAUAAUAAAUAUUUAUAGCAGGUAGGUCGCCUACUAUAGC [KL-SSArg B22] | 104
26 | GGCAUGGUGGCGCGGCUGCCAUGCGCUUGGGAGGAUAUGUUUCGUGACAGAAGGCCCAGUGAUGUUGGGUCUGUUCAAAAGGACU [Onrabe] | 113
27 | UGAUACCAGACUGAUACCAGCCAGUGAUGUUGGCUGAAAUCAGGGUCAAAGACCCUGUCUGGCCCUUGGCAGCAGUCUGGUAUCU [TheoBX 19 #SwitchBubble #StaticStem] | 281
28 | GCUAUGGUAGGAAGGAGCGCUAAUUUAUUUUUACGAGUGAUGUUCGGUAGUAGAUUGUUAAAGCAGGUAGGUCGCCUACUAUAGC [Arginine B K4 17] | 92.5
29 | AAAUAGAUCAGUCAACCAGUGAUGUUGGAAGGAGCGUGCGAAAGCACAGGUAGGUCGCCAGAAUAAAAUUGGCUGAUCAAAAUAA | 185
30 | AACUGUCAAGGACAACAUUACUGGAGUGAUACCAGCAUCGAAAGAUGCCCUUGGCAGCACUAACUUGCAGUGAUGUUGCAAGUAA [BrourdMod 6 - Jieux - Exclusion - Theophylline A] | 191
31 | CCACUAUUCUUGUCGGAGUGAUGUUCCGAUACCAGCAUAGAGAUGUGCCCUUGGCAGCGGUCUAUUCUACGCCCGUCUAUUUCAA [Somari] | 148
32 | AAUUAGCCGUAAGAAUAGUGAUGUUAUUCACGAGGACCGGUACGGCCGCCACUCGAUAUUGGAAUAUUGAAUUUUUUAUUCUAAA [JR_SSTryptoA_Sub009] | 291
33 | GCAACAUUGGGAGGAUAUCAUUCUGAGUGAUGUUCAGGGUUCAGCUAACGAAAGUUAGUUGUACCAUGAGAAGGCCUAAUGUUGC [Omei KL FMN B SS A v2] | 961

Row | Sequence | apparent KD of K4 kissing-loop reporter [nM]
34 | ACAUGUGCCAGUGAUGUUGGCGUACGUGAUACCAGACGAAUAAAAGUCCCUUGGCAGCACAAAUAAGCCAAGAUAGAUGAAUGAU [#03 K4 Theophylline A Exclusion] | 189
35 | GCAGUGAUGUUGCACGAGUACGGUAGAGUACGAGGACCGGUACGGCCGCCACUCGUACGGAACUGGCUAAUUUAUGGAAUGGUGA [II] | 365
36 | CGCCAUAACACGGCCGCCACUCAUCAAGCUCAGUGAUGUUGAGCAGCAGCUGCAAUCGCGAUUACGAGGACCGGGUGCUGUCUGU [theeternabot_sameState_KL_Trp_B_50] | 231
37 | UGUGUUUACCUGACUCAGUGAUGUUGAGAAGGAGCGUGCAAAUGCACAGGUAGGUCGCUCAACCUAAAUUCAGGUGAGCACUAAA | 169
38 | AGCAGCAAAUCCUAGUGAUGUUAGGAUAUGUAGGAUAUCGGGAUACCGAGAAGGACAGAAGGAGGAGUGAUGUUCCUCAGCUGCA [FmnAX 23 #DoubleAptamer #DoubleK4 #SwitchBubble] | 94.9
39 | AUUUUAAUCGCAGAUACCAGUCCAGAAUGAAUACUAUAGUGAUGUUAUAAUAAAGGGAAGGACCCUUGGCAGCUGUACUAUAUUA [AstrosSsTheB#9] | 281
40 | AAGCUCAGCGUGACUCGAUAAGAGUCACAACGAGGACCGGUACGGCCGCCACUCGAAAUAAGGGAGUGAUGUUCUCGCUGAGCAA [#SwitchBubble 5 #StaticStem #K4Late] | 587
41 | UAUAUACAUAGAUAGUUGUAUAUCGAGGAAGGAGCGUGCGCAGGCACAGGUAGGUCGCCUCAGCGCACGAGUGAUGUUCGUGGGC [Tezale] | 246
42 | AAGAGCUAGGCGGCCGCCACUAGAUGUGAACACAUACAAGCCAGUGAUGUUGGUAUGAUGGACGGUAGGACCGGGCCUAGCUGAA [Exclusion - Tryptophan B (Freestyle 12)] | 294
43 | GUCCACACUGCAGGAUAUGGAGAAGUAGCGAGGGAGUUUGGAAGCACACCUCUGGCAGUGAUGUUGCCAGAAGGGCGGUGCGGCG [Inlaindi] | 93.9
44 | GGCCACGGGCGAGGAUAUGGGCAUGAUUCAUCCUGGAGUGAUGUUCCAGGUCCUACGUUUCGAGCACCAGAAGGCGUUUGUUGCU [Biazaqure] | 524
45 | AUAAACUUGCAGUGAUGUUGCAAGUAAGACUAGGAUAUCAGGAAGCUGAGAAGGAGUCAUCUCCUUCAAACAUCACUAUGAAGGA [whbob_SS_FMNA__2th177] | 253
46 | UUUGGUAGCGGUGUUGAUUAGGGAGCGGAAGGAGCGCCGAGGAGGGCAGGUAGGUCGCCGGAAUGUAGUGAUGUUGCAUAGAGGU [ExArgA.Ab] | 214
47 | CCUAUCUCAUACGAUACCAGUGAAUUUAUAUUUAUAAGCAGUGAUGUUGCAUUCCAAGUACACCCUUGGCAGCGUAUGGGAUAGG [Ex Theophylline B K4 21] | 161
48 | AGACUACUGAUAGGAUAUAACAUACUACUCGUAUACCAAAGGUAUACGAGAACCCUUCUAGUGAUGUUAGAAGGGUCGGUAGUCA [Omei KL FMN B Exc B v7] | 72.8
49 | CAAUGAGUUUAAGAUGAUAUCAUCACAGAAGGAGCGAGUGAUAACUCAGGUAGGUCGCUGAAUUUGUCGAGUGAUGUUCGAUAGA [whbob_SS_Arginine_A_sa120] | 174
50 | UUUUAAUAAGAGGAUACCAGUACAAAUAAAGUACAUUAAUAGUAGAGUGAUGUUCUAAAGUACCCUUGGCAGCUUAGAGUAAGUU [ExTheophylB.B] | 99.8
51 | GUACCUUGGAAACAAGGACAGAUAACCGAAGGAGCGCGUGAAAACGCAGGUAGGUCGCGGAAGCAGUGAUGUUGCAAAAGAGAGC [Same State Arginine A GF 17] | 111
52 | GUUAAGUCGCGAAGGAGCGCGAACUAACAACGCAGUGAUGUUGCGUUGUACGUAGUAUAAUCGCAGGUAGGUCGCGCGACAGGCC [Arg B SS t16] | 92.3
53 | AGUGAUGUUGAGUGAUGUUAGUGAAGUGAUCGAGGACCGGUACGGCCGCCACUCGAGUGAUGAGUGAGUGAUGUUUGUUUAGUGA [hhbmullin] | 78.2
54 | GGAUUCGGCACGGCCGCCACUUCCGGUGGCUGGUGUCAUGGUGCGCGUGAGUGAUGUUUAUGUGGGAGGACCGGGUGUUGAGUCC [whbob_Ex_Tryp_B_w44] | 502
55 | AAGAAGAAUGGAAGGAGCGAGCAGAUAUAACCAGUGAUGUUGGAAAGCCUUAUUGCUUAAGCUCAGGUAGGUCGCCAAGAAGAGA [whbob_Ex_Arginine_B_2t152] | 184
